Test results published in patent WO2013015821A1.

Legend:
[1] = target: human transcobalamin receptor (TCblR/CD320), full length, on cells (human) (UniProt Q9NPF0); test: TC-[57Co]Cbl on normal and TCblR overexpressing HEK 293 cells, 1 hour at 37°C, surface counts released by trypsin/EDTA
[2] = target: TCblR with the cytoplasmic tail deleted, membrane-anchored on HEK293 cells (human) (UniProt Q9NPF0); test: TC-[57Co]Cbl on HEK293 cells expressing TCblR with the cytoplasmic tail deleted, surface counts released by trypsin/EDTA

Sequence of UniProt Q9NPF0 (Q9NPF0 36-282 limits assumed): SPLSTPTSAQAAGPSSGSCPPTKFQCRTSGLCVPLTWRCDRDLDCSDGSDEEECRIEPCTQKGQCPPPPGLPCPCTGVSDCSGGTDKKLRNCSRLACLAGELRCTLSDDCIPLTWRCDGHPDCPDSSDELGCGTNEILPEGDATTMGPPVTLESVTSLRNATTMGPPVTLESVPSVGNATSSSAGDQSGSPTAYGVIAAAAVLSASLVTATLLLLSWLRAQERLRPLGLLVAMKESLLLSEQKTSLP

B1: transcobalamin saturated with cobalamin (TC-Cbl) (ligand, human, UniProt P20062 19-427, looked up)
chain: EMCEIPEMDSHLVEKLGQHLLPWMDRLSLEHLNPSIYVGLRLSSLQAGTKEDLYLHSLKLGYQQCLLGSAFSEDDGDCQGKPSMGQLALYLLALRANCEFVRGHKGDRLVSQLKWFLEDEKRAIGHDHKGHPHTSYYQYGLGILALCLHQKRVHDSVVDKLLYAVEPFHQGHHSVDTAAMAGLAFTCLKRSNFNPGRRQRITMAIRTVREEILKAQTPEGHFGNVYSTPLALQFLMTSPMRGAELGTACLKARVALLASLQDGAFQNALMISQLLPVLNHKTYIDLIFPDCLAPRVMLEPAAETIPQTQEIISVTLQVLSLLPPYRQSISVLAGSTVEDVLKKAHELGGFTYETQASLSGPYLTSVMGKAAGEREFWQLLRDPNTPLLQGIADYRPKDGETIELRLVSW
modifications: cobalamin bound non-covalently ([57Co]Cbl in the radio assays)
A % of the radiolabel on the membrane [1] of 37 to 43% and a % of the TCblR-bound radiolabel remaining on the cell surface [2] of 80% were found for B1 in this work.
